Test results: paper PMC7036032

Biological target: T1, CstF77 (human), Q12996
T1 chain: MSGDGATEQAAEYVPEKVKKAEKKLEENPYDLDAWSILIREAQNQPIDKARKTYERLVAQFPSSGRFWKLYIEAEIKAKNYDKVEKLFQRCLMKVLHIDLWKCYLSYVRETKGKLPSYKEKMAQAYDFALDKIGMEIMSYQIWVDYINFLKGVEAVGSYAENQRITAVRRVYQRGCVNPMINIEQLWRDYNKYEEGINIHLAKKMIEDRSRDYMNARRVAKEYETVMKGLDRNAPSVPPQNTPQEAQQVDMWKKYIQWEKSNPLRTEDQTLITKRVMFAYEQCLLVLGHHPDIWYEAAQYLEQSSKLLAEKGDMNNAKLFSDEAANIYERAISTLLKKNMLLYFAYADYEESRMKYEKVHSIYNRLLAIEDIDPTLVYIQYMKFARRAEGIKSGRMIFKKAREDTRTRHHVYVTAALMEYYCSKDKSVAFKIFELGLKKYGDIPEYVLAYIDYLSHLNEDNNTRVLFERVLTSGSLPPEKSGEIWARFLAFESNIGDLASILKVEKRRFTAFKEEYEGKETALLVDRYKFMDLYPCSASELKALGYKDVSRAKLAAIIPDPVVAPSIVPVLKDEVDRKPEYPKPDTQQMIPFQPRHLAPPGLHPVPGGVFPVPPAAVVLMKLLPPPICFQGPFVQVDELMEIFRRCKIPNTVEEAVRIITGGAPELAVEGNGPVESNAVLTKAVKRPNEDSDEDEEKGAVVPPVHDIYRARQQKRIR
Test: cryo-EM structure
Settings: remark: other sources report otherwise

- stoichiometry N: 2
B1: CstF77, Q12996 1-717 (natural protein)
chain: T1 chain
